Experimental data taken from patent US20250042957A1 (Molecular Partners, published 2025).
One block for each binder: values may come before it.

Columns and labels:
scCD3εγ [1] = target: T1, scCD3εγ; test: ELISA: plate-bound biotinylated scCD3εγ, His-tagged α-CD3 mono-DARPin titrated, no VEGF
T1 chain 1: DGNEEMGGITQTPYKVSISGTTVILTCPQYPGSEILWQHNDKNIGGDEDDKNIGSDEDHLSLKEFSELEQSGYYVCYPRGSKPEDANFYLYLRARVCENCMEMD
T1 chain 2: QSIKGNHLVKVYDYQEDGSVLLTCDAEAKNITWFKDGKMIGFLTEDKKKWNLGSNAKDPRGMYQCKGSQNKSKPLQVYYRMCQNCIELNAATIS

scCD3εγ [2] = target: T1, scCD3εγ; test: as above
scCD3εγ [3] = target: T1, scCD3εγ; test: ELISA: plate-bound biotinylated scCD3εγ, His-tagged α-CD3 mono-DARPin titrated in presence of 100 nM soluble VEGF
Protocol: (§1) ELISA assays offer an easy and qualitative way to determine the binding of the Switchdrug DARPin constructs to a target. The difference in binding of Switchdrug DARPins to scCD3εγ in presence and absence of VEGF was assessed. […] Said Switchdrug DARPins were mixed with a constant concentration of VEGF (100 nM) and tested for binding to scCD3εγ. […] The difference in EC50 of a construct in presence and absence of VEGF can be referred to as the “activation window”.
(§2) Switchdrug DARPins that were mixed with VEGF were titrated and pre-incubated for 1 day with VEGF in order to establish the thermodynamic equilibrium. These samples were loaded on the ELISA plate, incubated and washed, before the bound Switchdrug DARPins were detected as described above.

scCD3εγ [4] = target: T1, scCD3εγ; test: ELISA on scCD3εγ, DARPin titrated
scCD3εγ [5] = target: T1, scCD3εγ; test: ELISA: plate-bound biotinylated scCD3εγ, His-tagged α-CD3 mono-DARPin titrated in presence of 100 nM soluble VEGF
Protocol: as §1, §2

scCD3εγ [6] = target: T1, scCD3εγ; test: ELISA: plate-bound biotinylated scCD3εγ, His-tagged α-CD3 mono-DARPin titrated, no VEGF
scCD3εγ [7] = target: T1, scCD3εγ; test: as above
scCD3εγ [8] = target: T1, scCD3εγ; test: as above
scCD3εγ [9] = target: T1, scCD3εγ; test: as above
scCD3εγ [10] = target: T1, scCD3εγ; test: as above
scCD3εγ [11] = target: T1, scCD3εγ; test: SPR, bio-scCD3εγ coated on NAD chip, DARPin 333.33-4.11 nM
VEGF165 [12] = target: T2, VEGF165 (UniProt P15692-4 27-191, biotinylated in the ELISA of Example 4 (site not stated)); test: SPR (ProteOn), VEGF165 immobilized, single-trace 50 nM, 25 C
T2 construct: also called biotinylated VEGF165; soluble VEGF

VEGF165 [13] = target: T2, VEGF165; test: ELISA: plate-bound biotinylated VEGF165, His-tagged binder titrated, anti-His-HRP detection
Protocol: Binding is detected via an HRP-labeled anti-His antibody.
Then a titration of the Switchdrug DARPins was applied, incubated and washed. Detection of bound his-tagged constructs was done by anti-RGS(his)4 mAb HRP conjugate, and detected by TMB substrate.

scCD3εγ [14] = target: T1, scCD3εγ; test: ELISA: plate-bound biotinylated scCD3εγ, His-tagged construct titrated in presence of 100 nM soluble VEGF
Protocol: (§3) The difference in binding of Switchdrug DARPins to scCD3εγ in presence and absence of VEGF was assessed. […] Said Switchdrug DARPins were mixed with a constant concentration of VEGF (100 nM) and tested for binding to scCD3εγ. […] The difference in EC50 of a construct in presence and absence of VEGF can be referred to as the “activation window”.
as §2

scCD3εγ [15] = target: T1, scCD3εγ; test: ELISA: plate-bound biotinylated scCD3εγ, His-tagged construct titrated without and with 100 nM soluble VEGF
Protocol: as §3, §2

scCD3εγ [16] = target: T1, scCD3εγ; test: ELISA: plate-bound biotinylated scCD3εγ, His-tagged construct titrated, no VEGF
Protocol: as §3, §2

scCD3εγ [17] = target: T1, scCD3εγ; test: as above
Protocol: as §2

T2 sequence (P15692 other isoform, or with tags, fused parts or gaps limits assumed): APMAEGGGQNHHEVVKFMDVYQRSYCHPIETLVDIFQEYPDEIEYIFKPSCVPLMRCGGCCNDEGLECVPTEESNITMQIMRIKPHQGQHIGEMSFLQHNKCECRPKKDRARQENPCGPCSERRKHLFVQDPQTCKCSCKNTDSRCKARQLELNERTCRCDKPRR

EC50 (read off the curve) (scCD3εγ [1]): ~5 nM | EC50 (read off the curve) (scCD3εγ [2]): ~5 nM | EC50 (read off the curve) (scCD3εγ [3]): ~4 nM | EC50 (read off the curve) (scCD3εγ [4]): ~3 nM | EC50 (read off the curve) (scCD3εγ [5]): ~4 nM | EC50 (read off the curve) (scCD3εγ [6]): ~3 nM | EC50 (read off the curve) (scCD3εγ [7]): ~3 nM | EC50 (read off the curve) (scCD3εγ [8]): ~3 nM | EC50 (read off the curve) (scCD3εγ [9]): ~3 nM | EC50 (read off the curve) (scCD3εγ [10]): ~4 nM | Kd (scCD3εγ [11]): 2.03 nM
B1: CD3-specific binding domain (SEQ ID NO: 3) (designed binder)
chain: DLGQKLLEAAWAGQDDEVRELLKAGADVNAKNSRGWTPLHTAAQTGHLEIFEVLLKAGADVNAKNDKRVTPLHLAAALGHLEIVEVLLKAGADVNARDSWGTTPADLAAKYGHQDIAEVLQKAA
modifications: biotinylated when used as immobilized SPR ligand (site not stated)
notes: also called α-CD3 DARPin

Kd (VEGF165 [12]): 0.21 nM | koff (VEGF165 [12]): 0.00014 s⁻¹ | kon (VEGF165 [12]): 646000 M⁻¹ s⁻¹ | EC50 (read off the curve) (VEGF165 [13]): ~0.5 nM
B2: VEGF-binder (SEQ ID NO: 1) (designed binder)
chain: DLDKKLLEAARAGQDDEVRILLKAGADVNAKDSTGWTPLHLAAPWGHPEIVEVLLKAGADVNAKDFQGWTPLHLAAAAGHLEIVEVLLKAGADVNAQDKSGKTPADLAADAGHEDIAEVLQKAA
notes: said to be disclosed in WO 2016/156596

EC50 (read off the curve) (scCD3εγ [14]): ~3 nM | shift in EC50 upon addition of 100 nM VEGF (scCD3εγ [15]): ~27 fold | EC50 (read off the curve) (scCD3εγ [16]): ~70 nM | EC50 (read off the curve) (scCD3εγ [17]): ~50 nM
B3: Switchdrug DARPin 17-1 (designed binder)
chain: MRGSHHHHHHGSDLGQKLLEAAWAGQDDEVRELLKAGADVNAKNSRGWTPLHTAAQTGHLEIFEVLLKAGADVNAKNDKRVTPLHLAAALGHLEIVEVLLKAGADVNARDSWGTTPADLAAKYGHQDIAEVLQKAAGSPTPTPTTPTPTPTTPTPTPTGSDLGKKLLQAARAGQLDEVRELLKAGADVNAKDSTGWTPLHLAAPWGHPEIVEVLLKAGADVNAKDFQGWTPLHLAAAAGHLEIVEVLLKAGADVNAKDWLGWTPLHLAASHGHLEIVEVLLKAGADVNAQDKSGKTPADLAARAGHQDIAEVLQKAA
notes: also called 2-in-1 DARPin17 in Format 1
